PMC4750549
Blank lines part the entries; values can stand above or below the substance they belong to.

Columns and labels:
CD200 (Homo sapiens) = CD200 (Homo sapiens) (UniProt P41217); conditions: cited from earlier work
[1] = target: rabbit CD200R rCD4d3+4 chimeric protein, biotinylated (rabbit (Oryctolagus cuniculus)); assay: SPR; BIAcore 3000, 37 °C, 10 mM HEPES pH 7.5, 150 mM NaCl, 3 mM EDTA, 0.02% P20; biotinylated rCD4d3+4 chimeras from concentrated tissue culture supernatants immobilised on streptavidin coated CM5 chip; purified monomeric soluble protein passed over in increasing concentrations; equilibrium binding, Langmuir isotherm
[2] = target: rat CD200R rCD4d3+4 chimeric protein, biotinylated (rat) (UniProt Q9ES58); assay: as above
[3] = target: rabbit CD200 rCD4d3+4 chimeric protein, biotinylated (rabbit (Oryctolagus cuniculus)); assay: as above
CD200 (Mus musculus) = CD200 (Mus musculus) (UniProt O54901); conditions: cited from earlier work
[4] = target: CD200 (Rattus norvegicus) (UniProt P04218); conditions: cited from earlier work
UniProt P04218, sequence (P04218 31-232): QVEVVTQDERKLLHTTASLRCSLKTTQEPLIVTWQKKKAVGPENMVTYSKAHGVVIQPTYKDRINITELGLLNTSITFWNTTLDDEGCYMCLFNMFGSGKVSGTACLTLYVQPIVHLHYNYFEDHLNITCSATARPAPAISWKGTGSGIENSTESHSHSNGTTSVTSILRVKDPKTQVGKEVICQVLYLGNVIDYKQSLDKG

UniProt O54901, sequence (O54901 31-232): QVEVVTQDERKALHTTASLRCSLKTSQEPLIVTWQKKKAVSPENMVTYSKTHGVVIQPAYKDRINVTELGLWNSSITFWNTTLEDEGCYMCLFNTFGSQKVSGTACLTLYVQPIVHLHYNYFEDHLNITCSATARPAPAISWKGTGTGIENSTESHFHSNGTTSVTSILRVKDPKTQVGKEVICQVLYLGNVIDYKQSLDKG
UniProt P41217, sequence (P41217 31-232): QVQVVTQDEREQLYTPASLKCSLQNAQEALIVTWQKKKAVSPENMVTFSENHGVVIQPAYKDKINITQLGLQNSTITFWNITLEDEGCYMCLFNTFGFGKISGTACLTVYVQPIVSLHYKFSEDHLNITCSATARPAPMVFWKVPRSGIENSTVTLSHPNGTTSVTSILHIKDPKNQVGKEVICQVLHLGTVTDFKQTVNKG
rabbit CD200R rCD4d3+4 chimeric protein, biotinylated (rabbit (Oryctolagus cuniculus)), sequence (main, as listed by the source mutant): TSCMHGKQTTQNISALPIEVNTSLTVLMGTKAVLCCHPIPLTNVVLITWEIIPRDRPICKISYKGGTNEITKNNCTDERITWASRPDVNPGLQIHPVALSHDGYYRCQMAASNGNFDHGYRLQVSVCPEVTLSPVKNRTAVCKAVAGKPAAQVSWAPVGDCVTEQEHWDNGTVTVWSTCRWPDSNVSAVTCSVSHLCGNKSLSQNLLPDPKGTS

Substance: CD200R (from UniProt Q8TD46)
Kd (CD200 (Homo sapiens)): 0.5 µM

Kd [1]: 3.3 to 3.4 µM | Kd [2]: 5.1 µM
Substance: soluble recombinant rabbit CD200 (extracellular region, His tag) (from UniProt A0A0S4XRM6 1-233) (ligand)

Kd [3]: 3.3 to 3.4 µM
Substance: soluble recombinant rabbit CD200R (extracellular region, His tag) (from UniProt A0A0S4XR64 1-238) (receptor)

Substance: CD200R (from UniProt Q9ES57)
Kd (CD200 (Mus musculus)): 4 µM

Substance: CD200R (from UniProt Q9ES58)
Kd [4]: 1.5 µM
